131 substances from the supplement of paper PMC12042874 can be followed below.

A short description of data set [1]: amyloid nucleation score (Sup35N fusion, yeast selection) (log enrichment); library NNK2; higher = more nucleation; inactive = no reads after selection. The essentials:
(§1)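 DiMSum was used to calculate nucleation scores as log enrichment of output over input reads, centred on the mode score of non-aggregating sequences. Sequences with fewer than 100 input reads were not scored. Input and output came from Illumina sequencing of plasmid inserts in psi-negative yeast expressing peptides of 20 random codons fused to Sup35N, induced 24 hours with 100 μM copper sulfate and then grown 7 days at 30°C on medium lacking adenine and uracil.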

Data set [2] can be described thus: amyloid nucleation score (Sup35N fusion, yeast selection) (log enrichment); library NNK3; higher = more nucleation; inactive = no reads after selection. The essentials: as §1

± gives the uncertainty stated by the source.

For MIQHEKQMWWADNSYP, the amyloid nucleation score in data set [1] came to 0.483 ± 0.24.

PKLPLAESR: the amyloid nucleation score in data set [1] is -0.11 ± 0.53.

IYKQLMVCHKCSDSAVTGYQ: in data set [1], the amyloid nucleation score turned out to be 6.14 ± 0.075.

As for KILSYASLSAGSFLVQ, the amyloid nucleation score in data set [1] is -0.531 ± 1.1.

For the substance GENTRSINVSSGMQEQSRKT, the amyloid nucleation score in data set [1] stood at 0.523 ± 0.38.

Turning to WAVELLLA, the amyloid nucleation score in data set [1] stood at 1.03 ± 0.53.

On to FPVSVTTISPNIYGQPNTWC, for which the amyloid nucleation score in data set [1] is -1.41 ± 0.45.

PSWCS came in with an amyloid nucleation score in data set [1] of 0.33 ± 0.17.

For the substance LYWMVSMTTDR, the amyloid nucleation score result in data set [2] is “inactive”.

In the case of AKWLEEKLMPAIDVVPGQWL, in data set [2], the amyloid nucleation score result is “inactive”.

Take PCHHFFFA: in data set [2], the amyloid nucleation score entry was “inactive”.

For LVISNIFRPHSVPWIIVENS, in data set [2], the amyloid nucleation score entry is “inactive”.

Consider MSRTKPLGF, for which the amyloid nucleation score result in data set [2] was “inactive”.

Turning to GNSLWKSPCYL, in data set [2], the amyloid nucleation score result was “inactive”.

As to SSMGVVSVRAN, the amyloid nucleation score entry in data set [2] is “inactive”.

As for DEGKSNPPF, the amyloid nucleation score result in data set [2] is “inactive”.

As to IQLMLFIDCLSENCYVWLRY, the amyloid nucleation score entry in data set [2] was “inactive”.

Consider VLGYILMRLRLYKIQVDISG, for which the amyloid nucleation score entry in data set [2] was “inactive”.

For the substance GAGYL, the amyloid nucleation score entry in data set [2] is “inactive”.

In the case of KFGWWLFDSVSDTNLWYRRS, the amyloid nucleation score entry in data set [2] was “inactive”.

With MQLDLMCCLVSCTMNTFSSR, the amyloid nucleation score in data set [2] came to 1.54 ± 0.11.

As for YSRSGISFFTGRHKLFSMYG, the amyloid nucleation score entry in data set [2] was “inactive”.

Turning to MDQMPKKYLVLAAAAVVRMV, the amyloid nucleation score result in data set [2] is “inactive”.

Regarding MNGDSAMWFSISS, in data set [2], the amyloid nucleation score entry is “inactive”.

For AIKYILRAALNLNSSSTELE, the amyloid nucleation score entry in data set [2] was “inactive”.

FKWDGPESQFGPSLMRINGA registered an amyloid nucleation score in data set [2] of 1.16 ± 0.19.

On to FSAPVLSTLTASLLELKRSG, for which the amyloid nucleation score entry in data set [2] is “inactive”.

Turning to IVYFPLILGAIIYWMSETHL, the amyloid nucleation score result in data set [2] was “inactive”.

In data set [2], CWFFV showed an amyloid nucleation score of 0.242 ± 0.39.

For the substance WTIAVMVSVGKYMTGTAT, the amyloid nucleation score result in data set [2] is “inactive”.

With ANVLKFIWAFVWASVALLWS, the amyloid nucleation score entry in data set [2] was “inactive”.

HSGETIYKVWMMGSRTEIAW: in data set [2], the amyloid nucleation score entry is “inactive”.

In the case of MLLFHLVVQLNDLLSAPLRA, the amyloid nucleation score result in data set [2] was “inactive”.

On to IFSRGEGLLRRMVSL, for which the amyloid nucleation score result in data set [2] was “inactive”.

Consider KHMSHRCILMLSPYSDRNIM, for which the amyloid nucleation score result in data set [2] was “inactive”.

For the substance LFFYYMNSDLVR, in data set [2], the amyloid nucleation score result is “inactive”.

As for NHRYMMVTATRIKWDGVSWN, in data set [2], the amyloid nucleation score entry was “inactive”.

In data set [2], IVCISLCLAAEKQPSGCEFG gave an amyloid nucleation score of 2.01 ± 0.068.

On to LYRVLSYDLRLDKWCYKTLW, for which the amyloid nucleation score entry in data set [2] was “inactive”.

Regarding NLLSSSFLPPGWRSLKLGSS, the amyloid nucleation score entry in data set [2] is “inactive”.

Take PAADHLAKRCSMICSSSFAL: the amyloid nucleation score result in data set [2] was “inactive”.

Consider SSNYNLKTLNSISRFFDLES, for which, in data set [2], the amyloid nucleation score entry was “inactive”.

For the substance YRMSR, in data set [2], the amyloid nucleation score is 1.36 ± 0.1.

Take KFNVFPIHGALWTCSVSAYH: the amyloid nucleation score entry in data set [2] was “inactive”.

Substance YNVSINYVGENDGWEACFLS showed an amyloid nucleation score in data set [2] of 0.666 ± 0.12.

As for IFLNLLSRGFGLGRELKCRC, in data set [2], the amyloid nucleation score entry was “inactive”.

MYLPWISSSGVLNRTSMSFY came in with an amyloid nucleation score in data set [2] of 0.668 ± 0.12.

Take FNWMPMGEKSAWAVRVRSAC: the amyloid nucleation score entry in data set [2] was “inactive”.

With LKVYR, the amyloid nucleation score result in data set [2] is “inactive”.

MTCTVRSEVYIHFNFVAIKF: in data set [2], the amyloid nucleation score stood at 0.299 ± 0.33.

Consider LADNYVTCKS, for which the amyloid nucleation score entry in data set [2] was “inactive”.

With YINSFCTRKSYIY, the amyloid nucleation score result in data set [2] is “inactive”.

In the case of EIGYYFNFKRLGAS, in data set [2], the amyloid nucleation score entry was “inactive”.

With HNQKSCVYMSEGSWRSL, in data set [2], the amyloid nucleation score entry is “inactive”.

For the substance EDHFSLHACVSSGTLSKVVY, in data set [2], the amyloid nucleation score result is “inactive”.

On to DMCIHWDEGNAWWYKSMASV, for which the amyloid nucleation score result in data set [2] was “inactive”.

In the case of QQEMCTLFFRN, the amyloid nucleation score result in data set [2] is “inactive”.

With CSIHL, in data set [2], the amyloid nucleation score entry is “inactive”.

Consider SPLRRCMCSFDDAKWWMCGE, for which, in data set [2], the amyloid nucleation score came out at 0.803 ± 0.25.

Turning to DHHQIFYVWSLPMA, in data set [2], the amyloid nucleation score entry was “inactive”.

As to LFTELGSILF, the amyloid nucleation score entry in data set [2] is “inactive”.

With EKDISAAMRMHGR, in data set [2], the amyloid nucleation score is -0.315 ± 0.9.

As to GPGSYWEMRTN, the amyloid nucleation score entry in data set [2] was “inactive”.

The substance SSERGMLVDNVLSHSWMFCI registered an amyloid nucleation score in data set [2] of 1.35 ± 0.13.

As for GEIANSQVRKWLIEMYSPVV, in data set [2], the amyloid nucleation score entry is “inactive”.

In the case of RLVRSMAFYNHVIYL, the amyloid nucleation score in data set [2] came to 0.012 ± 0.28.

Turning to WNCGSPPR, the amyloid nucleation score result in data set [2] is “inactive”.

Take LYVFCLAILPLDVLRFSLML: the amyloid nucleation score entry in data set [2] is “inactive”.

On to SRSAY, for which the amyloid nucleation score result in data set [2] is “inactive”.

The substance LNYMSDFYLLLSERTCVYYQ came in with an amyloid nucleation score in data set [2] of 0.754 ± 0.16.

In data set [2], YKANFMGFSIYKRVGTRVWQ came in with an amyloid nucleation score of 0.15 ± 0.75.

RSLTLKLTGGVLALMRS: the amyloid nucleation score entry in data set [2] was “inactive”.

For the substance SFFTGKAKGFYRQALRTYYR, in data set [2], the amyloid nucleation score was -0.093 ± 0.59.

With YFFSDNRNFRVNPVSNR, the amyloid nucleation score entry in data set [2] is “inactive”.

Regarding SHVWFDRGLIETEMSAHRY, the amyloid nucleation score entry in data set [2] is “inactive”.

As for TRLTL, the amyloid nucleation score entry in data set [2] was “inactive”.

In turn, SPGGLGFSVNLHCSTYFRPS showed an amyloid nucleation score in data set [2] of 1.24 ± 0.14.

In the case of TWEVYTMCIRNGGVLGLFIF, in data set [2], the amyloid nucleation score entry was “inactive”.

In the case of LDVSLVVVMPIGLRTEWMSG, in data set [2], the amyloid nucleation score entry is “inactive”.

In the case of HHNTYCYVLFELFTV, the amyloid nucleation score in data set [2] came to 0.505 ± 0.49.

Consider MYGHIYHFRINTLWGVNL, for which the amyloid nucleation score result in data set [2] was “inactive”.

For the substance FWRSGNFYVNTVVLCASSRE, the amyloid nucleation score in data set [2] was 2.03 ± 0.099.

Turning to NRAVHKSRWHRMRTFKDERR, the amyloid nucleation score result in data set [2] was “inactive”.

KATLRCCEPYVNDMVVANLK: the amyloid nucleation score result in data set [2] was “inactive”.

On to FGEMRFCFCAG, for which the amyloid nucleation score result in data set [2] is “inactive”.

On to TLGVGP, for which the amyloid nucleation score entry in data set [2] is “inactive”.

For the substance LNPLPQRLYSPCSLKFCNDG, in data set [2], the amyloid nucleation score entry was “inactive”.

For TPRQFSDGCISFNKVTINPQ, the amyloid nucleation score in data set [2] is 0.704 ± 0.34.

For the substance VTKGWQGLGGLMGGEVCPWV, the amyloid nucleation score entry in data set [2] is “inactive”.

As to CYWEPRSWISCRRPILRMSV, in data set [2], the amyloid nucleation score entry was “inactive”.

As for SYISNP, the amyloid nucleation score result in data set [2] was “inactive”.

Consider IQHFFQINNWLLDI, for which the amyloid nucleation score in data set [2] was 1.98 ± 0.07.

For KFGCSYTNYSITSPDNPSC, the amyloid nucleation score entry in data set [2] was “inactive”.

Take DLCAEFWIYWHVTMPVYLEM: the amyloid nucleation score result in data set [2] is “inactive”.

In turn, MNRMCVLLVNFCVDTD had an amyloid nucleation score in data set [2] of 1.9 ± 0.06.

Take LYELGQKFLVGHWQRGLKP: the amyloid nucleation score result in data set [2] is “inactive”.

The substance PLAFWTCCYCLTWNLRLSWQ yielded an amyloid nucleation score in data set [2] of 1.6 ± 0.059.

In data set [2], IHLGMWIRKQFY registered an amyloid nucleation score of 0.985 ± 0.15.

As to LHCPISYLAMSKKS, in data set [2], the amyloid nucleation score entry was “inactive”.

In data set [2], DMISFKMLQYCWCSSCVFSH gave an amyloid nucleation score of 2.18 ± 0.088.

TPMGQCAYHEPVNMVKKALR: the amyloid nucleation score result in data set [2] was “inactive”.

For SNVVYMKYRMAVLVTLGICG, the amyloid nucleation score result in data set [2] was “inactive”.

For MTRCLSFWTRSQVLYFCWKL, the amyloid nucleation score entry in data set [2] was “inactive”.

Take TVTSSFATLNQVYGPHVFVN: the amyloid nucleation score result in data set [2] was “inactive”.

On to IQNANVRHYKRHRKFLTFIS, for which the amyloid nucleation score in data set [2] amounted to 1.27 ± 0.11.

For the substance NVMIDDVLARYYRVRRGLVG, the amyloid nucleation score entry in data set [2] is “inactive”.

Turning to TYVVMGFRCETFRIHNGLRR, the amyloid nucleation score result in data set [2] is “inactive”.

YRGKIGTWECGVISYETAAT: the amyloid nucleation score entry in data set [2] was “inactive”.

Consider RVTDLFRRLASNYILSSTTA, for which the amyloid nucleation score result in data set [2] was “inactive”.

With YRKLVVSPLGILPKYRTPCC, in data set [2], the amyloid nucleation score result was “inactive”.

On to DWRAVLLGITSFA, for which the amyloid nucleation score result in data set [2] is “inactive”.

Consider RTYLDYGVNALLCPLTWGFS, for which the amyloid nucleation score in data set [2] is -0.071 ± 0.73.

With SYGLFR, the amyloid nucleation score entry in data set [2] is “inactive”.

As for LEQYEKLRGSPKVNRRMCNQ, in data set [2], the amyloid nucleation score entry is “inactive”.

As for LSITDVGI, in data set [2], the amyloid nucleation score result is “inactive”.

Take FRYVWFCYCMNVERVENVRL: in data set [2], the amyloid nucleation score result was “inactive”.

With IVEDVGYLHLYRIQFGGVSE, the amyloid nucleation score entry in data set [2] is “inactive”.

Take VCWSHNPRPTDDY: in data set [2], the amyloid nucleation score result was “inactive”.

With SKTFNDPFLLNHLNTFIKPR, the amyloid nucleation score in data set [2] was -0.259 ± 0.93.

For the substance DRYLCVVKCSVVTGIDQMSM, in data set [2], the amyloid nucleation score result is “inactive”.

Consider VSHFSSRHKRTEVRSGSPQT, for which the amyloid nucleation score result in data set [2] is “inactive”.

For RHEHREGNGDVPLNV, the amyloid nucleation score result in data set [2] is “inactive”.

SWVGTG: in data set [2], the amyloid nucleation score is -0.331 ± 0.84.

As to YLDNVFNGPAFLYSGSRDR, the amyloid nucleation score in data set [2] amounted to 1.02 ± 0.18.

Consider SETKVIGQLRKTSNSEAHNA, for which the amyloid nucleation score in data set [2] is 0.422 ± 0.67.

With EQLISTSPLCVFIGFLVVLY, the amyloid nucleation score result in data set [2] is “inactive”.

On to MPWKSMAHFYALEFDLRCLR, for which the amyloid nucleation score in data set [2] came out at 0.619 ± 0.22.

RSALILAWHCRSMSLQDAEG: in data set [2], the amyloid nucleation score result is “inactive”.

Turning to DGILTVCYEVVNWNSSSVLL, the amyloid nucleation score result in data set [2] was “inactive”.

As for FKAMTFAYGYLTVGLSVVGV, in data set [2], the amyloid nucleation score entry was “inactive”.

Take SYLCVATWSCPHYVGFSQHI: the amyloid nucleation score result in data set [2] is “inactive”.
